Results from the supplement of paper PMC9170038.

System: MS2 coat protein
Test: apparent KD of MS2 coat protein; designed switch direction (-1 OFF switch, 1 ON switch): -1; higher = weaker reporter binding
Summary of the method: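 The buffer was Tris-HCl pH 7.5 with KCl, MgCl2, BSA, DTT, tRNA and Tween-20. In it, SNAP-549-labelled MS2 coat protein was titrated in doubling steps from 0.7 or 1.5 nM to 3 µM over chip-bound RNA switches transcribed by stalled E. coli RNA polymerase on Illumina chips. Apparent KD is the per-design median over clusters of curve fits to normalised fluorescence.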

[1] = Eterna round: R95, input ligand: microRNA oligo, concentration not stated
[2] = Eterna round: R95, input ligand: FMN 200 uM
[3] = Eterna round: R95, input ligand: none
[4] = input ligand: microRNA oligo, concentration not stated

Sequence	apparent KD of MS2 coat protein (input ligand: FMN 200 uM) [µM]	apparent KD of MS2 coat protein (input ligand: none) [µM]	further results
CAGUACUGAGGAUAUACAUGAGGAUCACCCAUGUGGUUUAGUGCACGCGUACGUGUACGUAGAAGGCAGUACUG [JL 3.27 m8] (Eterna round: R97, puzzle: Exclusion 3)	0.0783	0.0189	
ACAGCGUGAGGAUAUACAUGAGGAUCACCCAUGUAUGGCAGGUUAUCCUGUCGUAUGUGUAGAAGGCACGCUGU [Exclusion 3 - Oddities v.3 ( A small slide from ms2 to fmn)] (puzzle: Exclusion 3)			apparent KD of MS2 coat protein [1]: 0.0508 µM
CAGUACUGAGGAUAUACAUGAGGAUCACCCAUGUGCCUAAGGUAGGAUACUACCAUUAGUAGAAGGCAGUACUG [Fiskers Ex 3 828 mod 16] (puzzle: Exclusion 3)			apparent KD of MS2 coat protein [1]: 0.0136 µM
CAAGAAUCUAUAUAAAGGCACAUGAGGAUCACCCAUGUGGUCCGUAAAAUCAUGCGACAAGCCAUUUGCUCGUCGUG [Eternabot (L2) Solution 30] (Eterna round: R97, puzzle: Sensor, turn-off variant 1)	0.0332	0.0376	
GAUUAUGCGAGCUUUAGGGACAUGAGGAUCACCCAUGUUCGUCUUAUUGAUCUGGAUGCACUGACAUACCUAAAUCU [JMF 80] (puzzle: Sensor v3, turn-off variant 1)			apparent KD of MS2 coat protein [2]: 0.029 µM; apparent KD of MS2 coat protein [1]: 0.0375 µM; apparent KD of MS2 coat protein [3]: 0.0283 µM
GAGGGACAUGAGGAUCACCCAUGUGAGGAUAUGUGAGAAGGAUUGGAGAGAAUAAGAAACAGAAGGCGCUGUAG [JR_Exclu1_Sub088] (puzzle: Exclusion 1)			apparent KD of MS2 coat protein [2]: 0.107 µM; apparent KD of MS2 coat protein [1]: 0.0889 µM; apparent KD of MS2 coat protein [3]: 0.138 µM
GAUCAUGCAGGAUAUACAUAAACCAUGAAAACAUGGAUCAAACAUGAGGAUCACCCAUGUAGAAGGGCAUGAUC [Omei Ex2 A20] (Eterna round: R97, puzzle: Exclusion 2)	0.042	0.0241	
GGUCCUGAUGAUUUCCUAUACAUGAGGAUCACCCAUGUAUGUUUAUUUUGUUUUUAGCUUUUUGGUCGUCAAUAAUA [Mod-Hoo-honey-3] (Eterna round: R97, puzzle: Sensor, turn-off variant 1)	0.0433	0.0434	
UAAAAGCUAGGAUAUACAUGAGGAUCACCCAUGUCACGGGUCCACUCAUCCUAUACGUGUAGAAGGAGCGACCC [Ceriza] (puzzle: Exclusion 3)			apparent KD of MS2 coat protein [1]: 0.02 µM
GUCAGACGAGGAUAUAAAUUUGAUAACAUGAGGAUCACCCAUGUGAUCGAUAGAUCAAAUUUAGAAGGUGUCUGAC [E5/7-B3] (Eterna round: R97, puzzle: Exclusion 5)	0.487	0.501	
GGUGGGCUAGGAUAUGCUUUGGGAGGGCAUUCCUUCGAUAAACUUGAGGAUCACCCAAGUAGAAGGAGCUUGCC [salish99_ex2_r4_022] (Eterna round: R97, puzzle: Exclusion 2)	0.0339	0.0153	
CCGGUAGCAUAGGAUAUCGCCAACGUUGUAGUACGAGAAGGGUGCACAUGAGGAUCACCCAUGUUUCCUGGCCG [Eternabot (L2) Solution 63] (Eterna round: R97, puzzle: Exclusion 6)	0.107	0.131	
GGAGAGUGAGGAUAUACAUGAGGAUCACCCAUGUAUAUCAAAUAAAAUAAAUUCUCAUGUAGAAGGCGCUUUUC [Alacar 3rd Attempt] (Eterna round: R97, puzzle: Exclusion 3)	0.0162	0.0144	
UUUUAACAUGAGGAUCACCCAUGUGAGGAUAUCGAAAUUUAUAUUUAUAUUAAUUUAUCGAGAAGGCACAUUUU [JMF 88] (puzzle: Exclusion 1)			apparent KD of MS2 coat protein [1]: 0.166 µM
UCACGGGACUAAGGAUAUACAUGAACCAUUUUUGUAGAAGGUAGAAUGUUUGAUCAUAAACUAAACAUGAGGAUCACCCAUGUU [JR_ExcNG1_Sub090] (Eterna round: R96, puzzle: Exclusion NG 1)			apparent KD of MS2 coat protein [4]: 0.0169 µM
UUUUGGCAUGUAGGAUAUGGGUCCGAUUAGGAUUUAGAAGGACAUGAGGAUCACCCAUGUGCAUUUAAUUGGUCUUUUUUUUUU [EXclNG1-LROPPY15] (Eterna round: R96, puzzle: Exclusion NG 1)			apparent KD of MS2 coat protein [4]: 0.08 µM
GCAGCAUAGUCGGAAUACGACAUACAUGAGGAUCACCCAUGUCAGGAUAUGGUCUGGAUUACAGGCCAGAAGGGACAAAGCUGC [Eli exng3 - 007] (Eterna round: R96, puzzle: Exclusion NG 3)	0.0248	0.0201	apparent KD of MS2 coat protein [4]: 0.0171 µM
UAUUAUCAAGCAAGAUCCCACAUGAGGAUCACCCAUGUGCUCGUCUUAUUUCCGGCCUUAUUGGGCUCUCGUCUAAU [JR_STOV1_v2_Sub094] (Eterna round: R97, puzzle: Sensor, turn-off variant 1)	0.034	0.0335	
AUGCGACAUGAGGAUCACCCAUGUGAGGAUAUGCGAAUGCAGACUUCGGUUUGAUAGAGCAGAAGGCGCAGGUA [EX1 #15] (Eterna round: R97, puzzle: Exclusion 1)	0.0585	0.0294	
CCGUGCACGCUGCGCUCCUACAUGAGGAUCACCCAUGUGGUCCGGUGGCGUGGGUCGCCGGACUUGGCUCGUCUUGU [salish99_S_TOV1_R5_019] (Eterna round: R97, puzzle: Sensor, turn-off variant 1)	0.0831		
GCACUGCGAGGAUAUACAUGAGGAUCACCCAUGUGUCGGCAGCCACGGUAGCACGAGUGUAGAAGGCGCGUUAG [EX3 #45] (Eterna round: R97, puzzle: Exclusion 3)	0.146	0.0312	
CUGAGCAGACGGAAAUCCAACAUGAGGAUCACCCAUGUCUCAAAAGCUUUUUGCUCGUCUUAUCUUCCUCUGCUCUC [Cecelein] (puzzle: Sensor v3, turn-off variant 1)			apparent KD of MS2 coat protein [2]: 0.0129 µM; apparent KD of MS2 coat protein [1]: 0.0168 µM; apparent KD of MS2 coat protein [3]: 0.0118 µM
GGAUCGAAUGUGAGGAUAUGCUGGUCCUUGGAUCAGCAGAAGGCACAUGAGGAUCACCCAUGUGAUCAAGAUCC [Eli bmx4 4.77] (Eterna round: R97, puzzle: Brourd's mod of Exclusion 4)	0.0583	0.91	
GCUCGCGGGCAAGGAUAUCCUACGCUGUUCUGGCCCGUGUCUGUUACAUGAGGAUCACCCAUGUGGGAGAAGGUGCACCAGGGC [Design 46] (Eterna round: R96, puzzle: Exclusion NG 2)	0.0197	0.0191	apparent KD of MS2 coat protein [4]: 0.0119 µM
AAUCCACAUGAGGAUCACCCAUGUCAGGAUAUCGCGCGCGCGUUUUCGGUCUCGCGCGCGAGAAGGGACGGCUG (puzzle: Exclusion 1)			apparent KD of MS2 coat protein [1]: 0.022 µM
GCAUGCUGAGUUAGGAUAUGCUAGCGUUGCCGCUAGCAGAAGGAACAUGAGGAUCACCCAUGUUAGCAUGCAGU [eternacac ex4r4 #2] (Eterna round: R97, puzzle: Brourd's mod of Exclusion 4)	0.016	0.014	
UUCAUGUAAGGAUAUACCUCGAGCUGAUGAGAGUCUCAAAUGUAGAAGGUACAUGAGGAUCACCCAUGUACAGG [Eternabot (Original) Solution 5] (Eterna round: R97, puzzle: Exclusion 4)	0.0652	0.042	
